# Source: patent US20050085629A1, “Utilization of FPRL1 as a functional receptor by serum amyloid A (SAA)” (priority 1999, published 2005)
# T1: FPRL1 (Homo sapiens, UniProt P25090)
# T1 sequence (P25090 1-351): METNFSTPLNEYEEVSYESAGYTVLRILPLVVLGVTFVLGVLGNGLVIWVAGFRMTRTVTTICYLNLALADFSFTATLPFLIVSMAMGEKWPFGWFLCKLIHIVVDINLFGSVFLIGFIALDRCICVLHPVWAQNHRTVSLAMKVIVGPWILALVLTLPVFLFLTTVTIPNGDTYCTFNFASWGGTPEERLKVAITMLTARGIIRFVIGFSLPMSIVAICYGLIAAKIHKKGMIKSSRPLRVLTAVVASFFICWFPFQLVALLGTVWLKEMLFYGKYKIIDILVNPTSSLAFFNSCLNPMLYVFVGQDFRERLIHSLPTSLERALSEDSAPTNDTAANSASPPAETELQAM
# T2: FPR (Homo sapiens, UniProt P21462)
# T2 sequence (P21462 1-350): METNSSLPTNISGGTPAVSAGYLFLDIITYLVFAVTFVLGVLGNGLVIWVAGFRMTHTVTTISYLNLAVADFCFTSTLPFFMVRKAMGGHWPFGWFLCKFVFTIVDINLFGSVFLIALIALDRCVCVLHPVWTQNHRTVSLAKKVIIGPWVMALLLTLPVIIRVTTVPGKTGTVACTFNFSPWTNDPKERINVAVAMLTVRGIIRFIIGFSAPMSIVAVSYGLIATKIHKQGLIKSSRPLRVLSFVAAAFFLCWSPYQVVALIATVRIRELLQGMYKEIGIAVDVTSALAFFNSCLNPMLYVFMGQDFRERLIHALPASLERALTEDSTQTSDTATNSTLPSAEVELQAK
# Columns and labels:
# [1] = target: T1, FPRL1; assay: Calcium mobilization (Fura-2) in FPRL1 transfected HEK 293 cells (FPRL1/293 cells); assay type: cell-based
# [2] = target: T1, FPRL1; assay: Chemotaxis of FPRL1/293 cells (48-well microchemotaxis chamber); assay type: cell-based; settings: for agonist activity on FPRL1: concluded from chemotaxis experiments
# [3] = target: T1, FPRL1; assay: 125I-SAA ligand binding to FPRL1/293 cells
# Method: (§1) rhSAA (20: g) was radio-iodinated on tyrosine and lysine residues with the chloramine T method and the specific activity of the labeled SAA was 5.8 mCi/mg (courtesy of J. Dobbs, SAIC Frederick, NCI-FCRDC, Frederick, Md.). A constant concentration of 16 nM ^125I-SAA was incubated for 20 min at 37° C. with human monocytes or 293 cells transfected with chemoattractant receptor cDNAs (1.5-2×10^6/sample, in 200: l RPMI1640, 1% BSA, 0.05% NaN3) in the presence of increasing concentrations of unlabeled SAA. After incubation, the cells were washed once with ice-cold PBS then were layered onto a 10% sucrose/PBS cushion in Eppendorf tubes. The cells were centrifuged at 10,000 g for 1 min and the tips of the tubes containing cell pellets were cut and measured for radioactivity in a γ-counter. The binding data were analyzed and plotted with a computer-aided program LIGAND (P. Munson, Division of Computer Research and Technology, NIH, Bethesda, Md.). The level of specific binding was determined by subtraction of non-specific binding (cpm on cells in the presence of 1: M unlabeled SAA) from the total binding (cpm on cells in the absence of unlabeled SAA). Experiments were performed at least 5 times which yielded similar results.
# [4] = system: human monocytes; assay: Cross-desensitization of Ca2+ mobilization in human monocytes (and neutrophils); assay type: cell-based
# [5] = system: human monocytes; assay: 125I-SAA ligand binding to human monocytes
# Description: GLPEKY. (SEQ. ID. No. 1). This rhSAA corresponds to SAA-1α, one of the major SAA isoforms in the serum, except for the addition of a methionine at the NH2 terminus as well as the substitution of aspartic acid for asparagine at position 60, which appears in the SAA2 isoform (reviewed in ref. Steinkasserer et al., Biochem. J., 268:187-193 (1990)). rhSAA at concentrations used in the study was negative for endotoxin as assessed by Limulus amebocyte lysate assays (sensitivity: 0.06 IU/ml. Bio Whittaker, Walkersville, Md.). High density lipoprotein (HDL) was purchased from Sigma (St. Louis, Mo.). […]
# rhSAA (20: g) was radio-iodinated on tyrosine and lysine residues with the chloramine T method and the specific activity of the labeled SAA was 5.8 mCi/mg (courtesy of J. Dobbs, SAIC Frederick, NCI-FCRDC, Frederick, Md.). […] The cells were centrifuged at 10,000 g for 1 min and the tips of the tubes containing cell pellets were cut and measured for radioactivity in a γ-counter. The binding data were analyzed and plotted with a computer-aided program LIGAND (P. Munson, Division of Computer Research and Technology, NIH, Bethesda, Md.). The level of specific binding was determined by subtraction of non-specific binding (cpm on cells in the presence of 1: M unlabeled SAA) from the total binding (cpm on cells in the absence of unlabeled SAA). […]
# [6] = system: neutrophils; assay: 125I-SAA ligand binding to neutrophils; parameters: species or system human
# [7] = target: human peripheral blood CD3+ T lymphocytes; assay: 125I-SAA binding to human peripheral blood CD3+ T lymphocytes
# [8] = target: T2, FPR; assay: Radiolabeled SAA binding to cells transfected to express FPR; parameters: expressed in transfected cells; settings: cells transfected to express the receptor
# Method: as §1
# [9] = target: T2, FPR; settings: FPR expressing 293 cells, FIG. 2C
# [10] = system: leukocyte; settings: from Badolato et al. 1994, Xu et al. 1995, Badolato et al. 1995; cited from earlier work
# [11] = target: T2, FPR; assay: Chemotaxis of FPR expressing ETFR cells (48-well microchemotaxis chamber); assay type: cell-based; parameters: expressed in transfected cells; host or cells: ETFR cells (rat basophil leukemia cell line), gift from Drs; H. Ali and R. Snyderman; settings: FIG. 3B
# [12] = FPRL1/293 cells, commercially available LXA4 (Biomol)
# [13] = FPRL1/293 cells pretreated with toxin
molecule,measurement,setting,value
"CCCCC[C@H](O)/C=C/C=C\C=C\C=C\[C@@H](O)[C@@H](O)CCCC(=O)O [LXA4, lipoxin A4]",induction of Ca2+ flux,[1]; [12],did not detect a significant induction
same,induction of chemotaxis,[2]; [12],did not detect a significant induction
same,inhibition of SAA binding,[3]; phagocytes or FPRL1/293 cells,nor did we observe inhibition
"CSCC[C@H](NC=O)C(=O)N[C@@H](CC(C)C)C(=O)N[C@@H](Cc1ccccc1)C(=O)O [fMLP, N-formyl-methionyl-leucyl-phenylalanine]",desensitization of Ca2+ flux response to SAA by prior fMLP,"[1]; FPRL1/293 cells, sequential stimulation, fMLP at 100 fold excess of SAA",only partially desensitized
same,desensitization of SAA-induced Ca2+ mobilization,"[4]; fMLP 10^-3 M = 1 mM, monocytes, FIG. 1C",completely desensitized
same,desensitization of SAA-induced Ca2+ mobilization,"[4]; fMLP at 100 nM, monocytes, FIG. 1B",partial desensitizing effect
same,attenuation of subsequent cell response (Ca2+) to SAA,"[4]; fMLP at relatively high concentrations (10: M and more), monocytes and neutrophils",able to attenuate a subsequent cell response to SAA
same,cell migration in response to stimulant,"[2]; FPRL1/293 cells, wide range of concentrations, FIG. 3A",failed to migrate
same,agonist activity on FPRL1,[2],partial agonist
same,competition with 125I-SAA for binding,"[3]; unlabeled fMLP at high concentrations (≧10: M), FPRL1/293 cells, FIG. 4D",only partially competed
same,competition with 125I-SAA for binding,"[5]; unlabeled fMLP at high concentrations (≧10: M), FIG. 4C",only partially competed
pertussis toxin,effect of cell pretreatment on SAA induced Ca2+ mobilization,[1]; [13],inhibited
same,effect of cell pretreatment on SAA induced chemotaxis,[2]; [13],inhibited
^125I-SAA: rhSAA radio-iodinated on tyrosine and lysine residues with the chloramine T method (protein) MRSFFSFLGEAFDGARDMWRAYSDMREANYIGSDKYFHARGNYDAAKRGPGGVWAAEAISNARENIQRFFGRGAEDSLADQAANEWGRSGKDPNHFRPAGLPEKY,binding sites/cell,"[3]; FPRL1/293 cells, FIG. 4A",42000 binding sites/cell
same,Kd,[6],45 nM
same,specific binding,[5]; FIG. 4B,specifically bound
same,Kd,[7],300 nM
same,binding to FPR receptor,[8],not the FPR receptor
"serum amyloid A (protein, listed as Homo Sapiens, N-terminal methionine, Recombinant human SAA from Pepro Tech; corresponds to SAA-1α with added NH2-terminal methionine and aspartic acid for asparagine at position 60) MRSFFSFLGEAFDGARDMWRAYSDMREANYIGSDKYFHARGNYDAAKRGPGGVWAAEAISNARENIQRFFGRGAEDSLADQAANEWGRSGKDPNHFRPAGLPEKY",desensitization of Ca2+ flux response to fMLP by prior SAA,"[1]; FPRL1/293 cells, sequential stimulation, 100 fold excess of fMLP",able to desensitize the cell response to a 100 fold excess of fMLP
same,EC50,"[1]; FPRL1 transfected cells (FPRL1/293 cells), FIG. 2B, read-out: EC50 for Ca2+ mobilization",250 nM
same,"desensitization of Ca2+ flux induced by chemokines (MCP-1, RANTES, MCP-3, MIP-1, IL-8, SDF-1)","[4]; SAA at 1: M, monocytes or neutrophils",failked to desensitize
same,attenuation of cell response (Ca2+) to fMLP,"[4]; fMLP used at 100 nM, monocytes, FIG. 1A",did not attenuate the cell response
same,EC50,"[2]; FPRL1/293 cells, read-out: EC50 of migratory response (chemotaxis)",200 nM
same,agonist activity on FPRL1,[2],full agonist activity
same,induction of Ca2+ mobilization,[9],not in FPR expressing cells
same,"optimal concentrations to induce leukocyte migration, adhesion and tissue infiltration",[10],0.8-4 : M
same,cell migration in response to stimulant,[11],did not migrate
